Assay [1] has as its target HIV-1 capsid protein C-terminal domain, CTD (144–231) (HIV-1) (UniProt P12493). Briefly: ITC. Background: In ITC the heat of successive injections is recorded.
Assay [2] concerns the target HIV-1 capsid protein C-terminal domain, CTD (150–231) (HIV-1) (UniProt P12493). Briefly: ITC.

For orientation: Kd means the constant that tells how readily two partners part at equilibrium. In assay [1], “HIV-1 capsid protein C-terminal domain, CTD (144–231) (from UniProt P12493 276-363) (domain or fragment)” came in with a Kd of 2.5 µM. That is a single-digit micromolar value. With “HIV-1 capsid protein C-terminal domain, CTD (150–231) (from UniProt P12493 282-363) (domain or fragment)”, the Kd in assay [2] turned out to be 11 µM.
